We go through three molecules from PMC7232456, “Loxoscelism: Advances and Challenges in the Design of Antibody Fragments with Therapeutic Potential” (Toxins, 2020).

For test [1], the target named is T1, recombinant SMase D LiD1 from L. intermedia (Loxosceles intermedia, UniProt P0CE81).
T1 construct: also called rLiD1; recombinant sphingomyelinase D
The test is described as follows: ELISA. To be noted: both partners purified. (ELISA stands for enzyme-linked immunosorbent assay.)

For test [2], the target named is T1, recombinant SMase D LiD1 from L. …. The test is described as follows: SPR. To be noted: both partners purified.

T1 sequence (P0CE81 27-306): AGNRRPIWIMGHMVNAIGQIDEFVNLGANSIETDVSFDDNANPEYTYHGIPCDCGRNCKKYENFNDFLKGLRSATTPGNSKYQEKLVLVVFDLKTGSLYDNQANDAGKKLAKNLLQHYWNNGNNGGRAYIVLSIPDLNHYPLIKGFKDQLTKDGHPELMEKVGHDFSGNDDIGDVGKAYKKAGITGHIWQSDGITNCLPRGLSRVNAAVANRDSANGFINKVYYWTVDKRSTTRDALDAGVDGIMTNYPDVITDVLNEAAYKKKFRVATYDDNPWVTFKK

B1: scFv15hLi7m (scFv, V domains shown)
VH: QVQLQQSGAEVKKPGASVKVSCKASGYAFSSSWMNWVRQAPGQGLEWMGRIYPGDGDTNYNQKFQGRVTMTRDTSTSTVYMELSSLRSEDTAVYFCARWTYGYSKYYYFDDWGQGTLVTVSS
VL: DIQMTQSPSSLSASVGDRVTITCRASQSLLWNVNENNYLSWYQQKQGKAPKLLIYGASILESGVPSRFSGSGSGTDFTLTISSLQPEDFATYYCQHNHGSFLPYTFGQGTKLEIK
notes: also called second generation of the humanized scFv; monomeric scFv
In the case of B1, the binding result in test [1] is listed as “binds”.

B2: scFv15hLi7 (scFv, V domains shown)
VH: QVQLQQSGAEVKKPGASVKVSCKASGYAFSSSWMNWVRQAPGQGLEWMGRIYPGDGDTNYNQKFQGRVTMTRDTSTSTVYMELSSLRSEDTAVYYCARWTYGYSKYYYFDDWGQGTLVTVSS
VL: DIQMTQSPSSLSASVGDRVTITCRASQSLLWNVNENNYLSWYQQKPGKAPKLLIYGASILESGVPSRFSGSGSGTDFTLTISSLQPEDFATYYCQHNHGSFLPYTFGQGTKLEIK
notes: also called humanized scFv; first generation of the humanized scFv
A word on the Kd: it is a measure of binding affinity in units of concentration. Usually koff stands for a measure of how fast the partners let go of each other. In general, kon refers to a measure of how fast the partners come together. Take B2: in test [2], the Kd stood at 56.6 nM, the koff was 0.0103 s⁻¹ and the kon was found to be 182000 M⁻¹ s⁻¹.

B3: scFv5hLi7m (scFv, V domains shown)
VH: QVQLQQSGAEVKKPGASVKVSCKASGYAFSSSWMNWVRQAPGQGLEWMGRIYPGDGDTNYNQKFQGRVTMTRDTSTSTVYMELSSLRSEDTAVYFCARWTYGYSKYYYFDDWGQGTLVTVSS
VL: DIQMTQSPSSLSASVGDRVTITCRASQSLLWNVNENNYLSWYQQKQGKAPKLLIYGASILESGVPSRFSGSGSGTDFTLTISSLQPEDFATYYCQHNHGSFLPYTFGQGTKLEIK
notes: also called (scFv5hLi7m)2; dimeric scFv5hLi7m
Consider B3, for which the binding result in test [1] is “binds”.
